The values below come from patent US20130177572A1 (X BODY, published 2013).

Test [1] has as its target T1, human PDGFRβ (human, UniProt P09619 33-530, limits assumed).
T1 construct: also called hPDGFRβ; recombinant human PDGFRβ
As to the kind of experiment: ELISA of unpaired VL domains: plate coated with human PDGFRβ or human Fc, OD 450 nm. As to the method: A PDGFRβ binding ELISA assay was performed to assess the binding of the scFv to immobilized PDGFRβ and to determine the EC50. Specifically, 2 ug/mL of human PDGFRβ and human Fc or IgG in PBS was immobilized on Maxisorp plates at 4° C. overnight. The plate was then washed and blocked with superblock. […] 100 ul of the diluted scFv lysate was loaded into each well of Maxisorp plates and incubated for 1 hour at room temperature. scFv that bound to immobilized PDGFRβ was detected by anti-flag antibody-HRP at 1:5000 dilution and a TMB substrate. The plate was read on a Molecular Device plate reader with end point assay at OD 450 nm.
A general note: An ELISA detects its analyte on a solid surface through an enzyme-linked reagent.

The target of test [2] is T1, human PDGFRβ. As to the kind of experiment: ELISA: plate coated with 2 ug/mL human PDGFRβ or human IgG, in vitro translated crude scFv lysate diluted 1:3, anti-flag-HRP, OD450. On the procedure:
(§1) A PDGFRβ binding ELISA assay was performed to assess the binding of the scFv to immobilized PDGFRβ and to determine the EC50. Specifically, 2 ug/mL of human PDGFRβ and human Fc or IgG in PBS was immobilized on Maxisorp plates at 4° C. overnight. The plate was then washed and blocked with superblock. In vitro translated crude scFv lysate was diluted 1:3 in 1×PBST. 100 ul of the diluted scFv lysate was loaded into each well of Maxisorp plates and incubated for 1 hour at room temperature. scFv that bound to immobilized PDGFRβ was detected by anti-flag antibody-HRP at 1:5000 dilution and a TMB substrate. The plate was read on a Molecular Device plate reader with end point assay at OD 450 nm.

Test [3] has as its target T1, human PDGFRβ. As to the kind of experiment: solution equilibrium binding: 35S-Met labelled in vitro translated protein, human PDGFRβ titrated, capture on protein A beads, scintillation counts. As to the method: The affinity of several scFvs was determined by solution based equilibrium binding assay. Specifically, 120 pmol of scFv RNA was translated into free protein with ³⁵S Met incorporated. The translated reaction mixture was 3-fold diluted in binding buffer containing 1×PBS with 0.025% triton, 1 mg/mL BSA and 0.1 mg/mL sssDNA. Human PDGFRβ was diluted in the same binding buffer to final concentrations from 100 nM to 0 nM. The diluted scFv mixture was incubated with hPDGFRβ in final volume of 100 ul on Kingfisher plates (Thermofisher Scientific, 97002084). Following incubation, 25 ul of protein A magnetic beads (Invitrogen) were used to capture the PDGFRβ from solution. The captured PDGFRβ was washed and eluted in kingfisher Reader (Thermofisher Scientific). The amount of scFv (labeled with ³⁵S Met) bound to the magnetic bead-immobilized hPDGFRβ was counted using a scintillation counter and the Kd was calculated with Graph Pad Prism 5.

In test [4] the target is T1, human PDGFRβ. As to the kind of experiment: ELISA: plate coated with 2 ug/mL human PDGFRβ or human Fc, in vitro translated crude lysate diluted 1:3, anti-flag-HRP, OD450. On the procedure:
as §1

T1 sequence (P09619 33-530 limits assumed): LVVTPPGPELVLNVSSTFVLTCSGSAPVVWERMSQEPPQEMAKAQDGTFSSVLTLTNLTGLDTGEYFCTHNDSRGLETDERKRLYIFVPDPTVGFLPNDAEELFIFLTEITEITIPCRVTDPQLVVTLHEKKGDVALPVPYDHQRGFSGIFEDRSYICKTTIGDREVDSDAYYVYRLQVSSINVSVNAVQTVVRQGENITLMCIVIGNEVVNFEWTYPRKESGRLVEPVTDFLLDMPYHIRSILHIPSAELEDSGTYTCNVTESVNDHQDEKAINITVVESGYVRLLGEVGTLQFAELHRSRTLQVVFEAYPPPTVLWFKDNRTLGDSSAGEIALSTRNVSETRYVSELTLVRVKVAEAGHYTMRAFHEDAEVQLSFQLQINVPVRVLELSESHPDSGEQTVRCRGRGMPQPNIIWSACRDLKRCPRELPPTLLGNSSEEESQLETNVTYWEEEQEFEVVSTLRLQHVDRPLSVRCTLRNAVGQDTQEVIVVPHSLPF

B1: A8 VL (other)
VL domain: QAGLTQSPDFQSVTPKERVTITCRASRYIGSNLHWYQQKPDQPPKLLIKLASQSFSGVPPRFSGGGSGTDFTLTINGLEAEDAATYYCHQTGSFPYTFGQGTKLTVL
notes: unpaired VL domain; also called unpaired A8 VL domain
In the case of B1, in the test with human PDGFRβ [1], the binding result was “no binding (tested: no concentration on the sheet)”.

B2: G8 VL (other)
VL domain: QSVLTQSPGTLSLSPGDRATLSCRASQSLSGTYLAWYQQKPGQAPRLLIYDASNRAAGIPKRFSGSGSRTDFTLTISRVDPADSAVYYCQQYGSALLTFGGGTKVTVL
notes: unpaired VL domain; also called unpaired G8 VL domain
On to B2, for which the binding result with human PDGFRβ [1] is given as “no binding (tested: no concentration on the sheet)”.

B3: B6 (scFv, V domains shown)
VH: QVQLVQSGAEVKKPGSSVRVSCKASGGTFSRHAISWVRQAPGQGLEWIGGILPILKTPNYAQRFQGRVTINADESTSTVYMEMSSLRSEDTAVYYCATHGGDRSYWGQGTLVTVSS
VL: EIVLTQSPGTLSLSPGERATLSCRASQSFGSNYLAWYQHKPGQAPRLLIFAASNRATGIPDRFTGSASGTDFTLTINRVEPEDLAVYYCQQYGSFPYSFGQGTKLEIK
notes: also called XB2202/B6 scFv
For the molecule B3, in the test with human PDGFRβ [2], the binding result is recorded as “binds”.

B4: F3 (scFv, V domains shown)
VH: QVQLVQSGAEVKKPGSSVRVSCKASGGTFSRHAISWVRQAPGQGLEWIGGILPILKTPNYAQRFQGRVTINADESTSTVYMEMSSLRSEDTAVYYCATHGGDRSYWGQGTLVTVSS
VL: QSVLTQPPSVSVAPGKTARITCGGNNIGSKSVHWYQQKPGQAPVLVIYYDSDRPSGIPERFSGSNSGNTATLTISRVEAGDEADYYCQVWDSSSDHWVFGGGTKLTVL
notes: also called XB2202/F3 scFv
Regarding B4, the binding result in the test with human PDGFRβ [2] was “binds”.

B5: G5 (scFv, V domains shown)
VH: QVQLVQSGAEVKKPGSSVRVSCKASGGTFSRHAISWVRQAPGQGLEWIGGILPILKTPNYAQRFQGRVTINADESTSTVYMEMSSLRSEDTAVYYCATHGGDRSYWGQGTLVTVSS
VL: DIQMTQSPSSLSASVGDRVTITCRASQDISSSLAWYQQKPGKAPKPLIYDASTLQTGVPSRFSGRASGTDFTLTIDSLQPEDFATYCCQQFNSYPLSFGGGTKVELKR
notes: also called XB2202/G5 scFv
Take B5: the binding result with human PDGFRβ [2] was “binds”.

B6: H5 (scFv, V domains shown)
VH: QVQLVQSGAEVKKPGSSVRVSCKASGGTFSRHAISWVRQAPGQGLEWIGGILPILKTPNYAQRFQGRVTINADESTSTVYMEMSSLRSEDTAVYYCATHGGDRSYWGQGTLVTVSS
VL: SYELTQPPSVSMAPGKTARITCGGNNLGSKIVHWYQQKPGQAPVVVIYSDRDRPSGVPERFSGSNSGNSATLTISGVEAGDEADYYCQVWDSATDHVVFGGGTKLTVL
notes: also called XB2202/H5 scFv
As for B6, in the test with human PDGFRβ [2], the binding result is listed as “binds”.

B7: D1 (scFv, V domains shown)
VH: QVQLVQSGAEVKKPGSSVRVSCKASGGTFSRHAISWVRQAPGQGLEWIGGILPILKTPNYAQRFQGRVTINADESTSTVYMEMSSLRSEDTAVYYCATHGGDRSYWGQGTLVTVSS
VL: DIVMTQTPLSLSVTPGQPAAISCKSSQSLVHRDGKTYLYWYLQKPGHSPQLLVYEASSRFSGVPDRISGSASGTQFTLNISRVEAEDVGLYYCMQSRNLPKTFGQGTKVEIK
notes: also called XB2202/D1 scFv
As for B7, the binding result in the test with human PDGFRβ [2] is reported as “binds”.

B8: G11 VL (other)
VL domain: EIVLTQSPGTLSLSPGEGATLSCRASQSVSSRNLAWYQQKPGQAPRLLIYGGSIRASGTSTRFSGSGSGTDFTLTINRLEPEDFAVYYCQQYGDSVFTFGPGTKVDIK
notes: unpaired VL domain; also called unpaired G11 VL domain
With B8, the binding result with human PDGFRβ [1] is “no binding (tested: no concentration on the sheet)”.

B9: H8 scFv (scFv, V domains shown)
VH: QVQLVQSGAEVKKPGSSVKVSCKASGGTFSSYAISWVRQAPGQGLEWMGGIIPIFGTANYAQKFQGRVTITADESTSTAYMELSSLRSEDTAVYYCAIHGGDRSYWGQGTLVTVSS
VL: QSVLTQSPGTLSLSPGERATLSCRASQSVSSNYLAWYLQKPGQAPRLLISGASSRATGIPDRFSGSGSGTDFTLTISRLEPEDFAVYYCQQYAGSPFTFGPGTKLTVL
notes: VL of the second round pool paired with XB1511 VH
As for B9, in the test with human PDGFRβ [3], binding was characterised by a dissociation constant (Kd) of 24.4 nM.

B10: B11 VL (other)
VL domain: QSVLTQSPGTLSLSPGERATLSCRASQSVSSNYLAWYQQKPGQAPRLLIYGASSRASGIPVRVSGSGSGTDFTLTISRLEPEDFAVYYCQQYGSSPWTFGQGTKLTVL
notes: unpaired VL domain; also called unpaired B11 VL domain
For the molecule B10, in the test with human PDGFRβ [1], the binding result is on record as “no binding (tested: no concentration on the sheet)”.

B11: H10 scFv (scFv, V domains shown)
VH: QVQLVQSGAEVKKPGSSVKVSCKASGGTFSSYAISWVRQAPGQGLEWMGGIIPIFGTANYAQKFQGRVTITADESTSTAYMELSSLRSEDTAVYYCAIHGGDRSYWGQGTLVTVSS
VL: QSVLTQSPDFQSVSPKDKVTITCRASQSIGSSLHWYQQKPGQSPKLLIKYSSQSFSGVPSRFSGSASGTEFTLTITGLEAEDAATYYCHQSSSLPHTFGQGTKVTVL
notes: as for B9
As to B11, in the test with human PDGFRβ [3], the dissociation constant (Kd) (as a rule, the free concentration of one partner at which half of the binding sites on the other are occupied at equilibrium, for simple one-to-one binding) was 23.2 nM.

B12: G8 scFv (scFv, V domains shown)
VH: QVQLVQSGAEVKKPGSSVKVSCKASGGTFSSYAISWVRQAPGQGLEWMGGIIPIFGTANYAQKFQGRVTITADESTSTAYMELSSLRSEDTAVYYCAIHGGDRSYWGQGTLVTVSS
VL: QSVLTQSPGTLSLSPGDRATLSCRASQSLSGTYLAWYQQKPGQAPRLLIYDASNRAAGIPKRFSGSGSRTDFTLTISRVDPADSAVYYCQQYGSALLTFGGGTKVTVL
notes: as for B9
Take B12: the binding result in the test with human PDGFRβ [4] is “binds”.

B13: H11 scFv (scFv, V domains shown)
VH: QVQLVQSGAEVKKPGSSVKVSCKASGGTFSSYAISWVRQAPGQGLEWMGGIIPIFGTANYAQKFQGRVTITADESTSTAYMELSSLRSEDTAVYYCAIHGGDRSYWGQGTLVTVSS
VL: QSVLTQSPDFQSVTPKEKVTITCRASQSIGSSLHWYQQKPDQSPKLLITFASQSFSGVPSRFSGSGSGTDFTLTINSLEAEDAATYYCHQSRNLPFTFGPGTKLTVL
notes: as for B9
Regarding B13, the Kd with human PDGFRβ [3] is 12.9 nM.

B14: B11 scFv (scFv, V domains shown)
VH: QVQLVQSGAEVKKPGSSVKVSCKASGGTFSSYAISWVRQAPGQGLEWMGGIIPIFGTANYAQKFQGRVTITADESTSTAYMELSSLRSEDTAVYYCAIHGGDRSYWGQGTLVTVSS
VL: QSVLTQSPGTLSLSPGERATLSCRASQSVSSNYLAWYQQKPGQAPRLLIYGASSRASGIPVRVSGSGSGTDFTLTISRLEPEDFAVYYCQQYGSSPWTFGQGTKLTVL
notes: VL of the second round pool paired with XB1511 VH; also called XB1511/B11 scFv
With B14, the binding result in the test with human PDGFRβ [4] was “binds”.

B15: H8 VL (other)
VL domain: QSVLTQSPGTLSLSPGERATLSCRASQSVSSNYLAWYLQKPGQAPRLLISGASSRATGIPDRFSGSGSGTDFTLTISRLEPEDFAVYYCQQYAGSPFTFGPGTKLTVL
notes: unpaired VL domain; also called unpaired H8 VL domain
Regarding B15, in the test with human PDGFRβ [1], the binding result is “no binding (tested: no concentration on the sheet)”.

B16: H10 VL (other)
VL domain: QSVLTQSPDFQSVSPKDKVTITCRASQSIGSSLHWYQQKPGQSPKLLIKYSSQSFSGVPSRFSGSASGTEFTLTITGLEAEDAATYYCHQSSSLPHTFGQGTKVTVL
notes: unpaired VL domain; also called unpaired H10 VL domain
Consider B16, for which, in the test with human PDGFRβ [1], the binding result was “no binding (tested: no concentration on the sheet)”.

B17: C7 VL (other)
VL domain: DIVMTQTPLSLSVTPGQPASISCKSSQSLLHSDGKTHLFWYLQRPGQSPQLLIYEVSGRFSGVSERFSGSGSGTDFTLKISRVEAEDVGVYYCMQGLHIPHTFGQGTKVEIK
notes: unpaired VL domain; also called unpaired C7 VL domain
As to B17, the binding result with human PDGFRβ [1] is recorded as “no binding (tested: no concentration on the sheet)”.

B18: H11 VL (other)
VL domain: QSVLTQSPDFQSVTPKEKVTITCRASQSIGSSLHWYQQKPDQSPKLLITFASQSFSGVPSRFSGSGSGTDFTLTINSLEAEDAATYYCHQSRNLPFTFGPGTKLTVL
notes: unpaired VL domain; also called unpaired H11 VL domain
Regarding B18, the binding result with human PDGFRβ [1] was “no binding (tested: no concentration on the sheet)”.
